Test results reported in the supplement of paper PMC12764529.
± gives the half width of the 95% confidence interval.

Experiments:
[1] = folding stability dG unfold (combined trypsin and chymotrypsin); higher = more stable
Summary of the method: (§1)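 Sequencing followed digestion of designed mini-proteins with trypsin and chymotrypsin, each at 11 concentrations in threefold dilutions together with a no-protease condition. The mini-proteins were under 80 residues, had no cysteine, sat in a PA-tagged cDNA display construct, and were kept only if AlphaFold2 dimer inter-PAE was above 15. From the counts, Bayesian fitting gave K50, and unfolding free energy was derived against a sequence-predicted unfolded-state K50 and a shared folded-state K50, per protease or combined.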

[2] = folding stability dG unfold from chymotrypsin proteolysis; higher = more stable
Summary of the method: as §1

[3] = folding stability dG unfold from trypsin proteolysis; higher = more stable
Summary of the method: as §1

Sequence	folding stability dG unfold [1] [kcal/mol]	folding stability dG unfold [2] [kcal/mol]	folding stability dG unfold [3] [kcal/mol]
SAGGSAGGSAGGKPKVILLEGIKKIEVKDGKVTIEADEPVLLVIDEDGNVHIYRLPKEDLSAGGSAGGSAGG [r7_29_TrROS_Hall]	1.35 ± 0.11	1.38 ± 0.099	1.03 ± 0.07
SAMYVYRARVEVRGPDGELLAEEEIVAESPEELKVAVLERFGLKESEIVRLEVEPVIPLEEFLELLEKGSAG [r14_852_TrMRF]	2.39 ± 0.11	2.48 ± 0.068	2.05 ± 0.042
SKKIVINLENIPEENREKVLENVLKAIKEAKEKNPEKKVKITILVSPEQKEEVKKLKEELEKAGLEVEEISA [r9_1202_TrROS_Hall]	2.73 ± 0.36	2.31 ± 0.089	3.81 ± 0.31
SAGMTSVEKRTLTFETEEEAEKEIKKIADELKKKGYKTEVKIEEVTKEKTEKGDSRYKVTATMKITKKESAG [r5_158_JUSTAS]	0.76 ± 0.17	0.792 ± 0.14	0.681 ± 0.074
SAGGSAGGSAGDFDIKTVKNPPGTLMIVMPDNGWIQQIKFDPKNGKFKIDEIKWIPLDDISAGGSAGGSAGG [r11_352_TrROS]	0.585 ± 0.11	0.602 ± 0.066	0.499 ± 0.028
SAGGSAGKTKIEIRPLPDGSYLVLVTSPDGSKSEFIADGPDIPLPELLKKLNLPPDIEVVNAELPESAGGSA [r15_167_TrMRF]	2.98 ± 0.13	3.05 ± 0.056	2.98 ± 0.12
SAGGSAGLAEAILREAASAGIPLENVRIVDVRAFVTPDAVVFRARIEYRLPNSTSLAYADAVVPAPSAGGSA [r15_863_TrMRF]	1.69 ± 0.073	1.82 ± 0.086	1.42 ± 0.026
SAGGELENLTVEELKALLEELFPDVEVKVTVEKLPEGYYRITVEIRVRLPNGETRRFELELVIRLEDSAGGS [r16_564_TrROS_Hall]	5.22 ± 0.28	5.36 ± 0.25	4.03 ± 0.23
SAGGSAGGITPDDYFLIKLNAVVKLPNGDIVELKKDEVILAKADDVEILHADDIEIYPIGRDKLSAGGSAGG [r6_810_TrMRF]	-0.0393 ± 0.22	-0.503 ± 0.29	0.23 ± 0.048
SAPDAKVEFNPKLVRKGDELLLLVEVKLSPDVDEVVVEIEVTGPDGSPFKVEAVQFPETGTVLVKAVLPASA [r9_159_TrMRF]	1.75 ± 0.094	2.04 ± 0.061	1.33 ± 0.078
SAKKVKPIAKLTITDENGNTYEITVTVKEVDGKLVVEAEVYNKDGELVARVTAVFDNGKLVAVSIELLPSAG [r14_828_TrROS_Hall]	2.8 ± 0.17	3.03 ± 0.072	2.11 ± 0.13
SAGGSAGGSAGGSKKIYLIKIEIEKKITYDKKTKELKIEEKIKIKIEPLSEEDLEKLLKSAGGSAGGSAGGS [r4_274_TrROS_Hall]	3.69 ± 0.46	3.83 ± 0.18	2.97 ± 0.25
SAGIEEVAKEIAETLEELLPSEYKILDAKAIPLPDDVVIVPITVQKFDPNGKPLGELQFVVVIPPGEASAGG [r19_28_TrMRF]	0.636 ± 0.062	0.519 ± 0.096	0.639 ± 0.068
SAGGSAGGSEPVVLTLPTPRGGRITITYDPSSNTATVTLPDGTVVTLSVTSVAEAKAAALAALSAGGSAGGS [r12_866_JUSTAS]	3.515 ± 0.025	3.698 ± 0.018	3.18 ± 0.04
SSVTLTLTAPLPDNTTVTVEVTLTPLPEKGLVVANPTVTVTTLTPDADGNLTTSSAPATFTVVVPPELAFSA [r9_1137_TrMRF]	1.86 ± 0.11	2.1 ± 0.11	1.48 ± 0.061
SAGGSAGGSMDGTVRQPPGGVWEVRARPPAVTPVLVTVVLVTVDADGNLILNPVAGYTHPDELSAGGSAGGS [r12_1027_TrMRF]	0.848 ± 0.077	1.11 ± 0.074	0.359 ± 0.032
SAGGSAGGSAGGSTLQSNASGIFTLYLAGSNLTVTLSKAELPKIPADFPIPSSATFTAGSAGGSAGGSAGGS [r4_91_JUSTAS]	-0.196 ± 0.41	-0.41 ± 0.51	0.215 ± 0.16
SMKIYILSSGDKEKVLAEVKEKYPDLEIELFEDIEEAKKAAEKGNLLISNGDEELAKEFEEKYNVKVIIKSA [r9_380_JUSTAS]	1.6 ± 0.14	1.65 ± 0.041	1.41 ± 0.039
SAGSPVTVPLTLTLTYTVNNPEGPEVLKTETIPLPLVFSPEELDDEETKALLQALVDALPDDVSEVVLESAG [r5_849_JUSTAS]	1.38 ± 0.046	1.43 ± 0.079	1.32 ± 0.02
SAGGSADNTDVKTEVVGFRLPGYEGLNFLINIQPKDKPKTIFASEAELPLFEEAGIPVVFTSSLPLSAGGSA [r15_783_TrMRF]	-0.131 ± 0.24	-0.0437 ± 0.43	-0.15 ± 0.29
SAGGMMKIRIEVENPKGEKKEIELSEEELERIKEALKEGKVLTEEELKKLIELAKEKGYKVKIVEIESAGGS [r8_159_TrROS_Hall]	2.09 ± 0.24	2.37 ± 0.074	0.447 ± 0.077
